{
  "source": "patent US20030144481A1",
  "key": {"[1]": {"biological_target": "human αvβ3 protein (CHEMICON International), soluble (human) (UniProt P06756)", "assay": "cell-based or functional assay"}, "[2]": {"biological_target": "αvβ3 integrin on C-PAE cells (bovine) (UniProt P80746)", "sequence (P80746 31-1048)": "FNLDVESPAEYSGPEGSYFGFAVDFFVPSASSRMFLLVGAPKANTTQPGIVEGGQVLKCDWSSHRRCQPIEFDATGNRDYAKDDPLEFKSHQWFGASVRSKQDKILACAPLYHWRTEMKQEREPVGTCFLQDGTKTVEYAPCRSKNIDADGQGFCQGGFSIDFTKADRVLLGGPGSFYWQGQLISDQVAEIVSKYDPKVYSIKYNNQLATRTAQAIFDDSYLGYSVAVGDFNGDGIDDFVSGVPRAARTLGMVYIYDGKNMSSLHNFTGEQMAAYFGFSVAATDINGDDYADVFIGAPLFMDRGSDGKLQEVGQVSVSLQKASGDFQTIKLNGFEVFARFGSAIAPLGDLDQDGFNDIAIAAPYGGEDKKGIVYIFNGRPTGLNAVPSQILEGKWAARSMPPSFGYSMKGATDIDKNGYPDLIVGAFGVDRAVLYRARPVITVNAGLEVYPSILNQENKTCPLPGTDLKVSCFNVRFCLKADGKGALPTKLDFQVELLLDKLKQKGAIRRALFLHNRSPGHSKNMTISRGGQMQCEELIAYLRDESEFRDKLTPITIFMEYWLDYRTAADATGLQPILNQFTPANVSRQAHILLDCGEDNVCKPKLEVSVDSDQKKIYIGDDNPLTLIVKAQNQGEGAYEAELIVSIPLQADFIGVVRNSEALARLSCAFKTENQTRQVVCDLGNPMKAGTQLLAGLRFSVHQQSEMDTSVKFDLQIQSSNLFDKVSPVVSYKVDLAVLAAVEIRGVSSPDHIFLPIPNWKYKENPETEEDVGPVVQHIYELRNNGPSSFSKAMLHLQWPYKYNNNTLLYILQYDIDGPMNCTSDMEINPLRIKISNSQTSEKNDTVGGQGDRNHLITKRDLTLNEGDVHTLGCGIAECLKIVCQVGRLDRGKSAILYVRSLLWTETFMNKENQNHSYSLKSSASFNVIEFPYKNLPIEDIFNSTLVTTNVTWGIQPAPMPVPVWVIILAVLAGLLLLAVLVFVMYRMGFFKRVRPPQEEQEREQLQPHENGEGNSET", "assay": "C-PAE attachment to Tum-2-coated plates"}, "[3]": {"biological_target": "αvβ3 integrin on HUVEC cells (human) (UniProt P06756)", "sequence (P06756 31-1048, chain 1 of 2)": "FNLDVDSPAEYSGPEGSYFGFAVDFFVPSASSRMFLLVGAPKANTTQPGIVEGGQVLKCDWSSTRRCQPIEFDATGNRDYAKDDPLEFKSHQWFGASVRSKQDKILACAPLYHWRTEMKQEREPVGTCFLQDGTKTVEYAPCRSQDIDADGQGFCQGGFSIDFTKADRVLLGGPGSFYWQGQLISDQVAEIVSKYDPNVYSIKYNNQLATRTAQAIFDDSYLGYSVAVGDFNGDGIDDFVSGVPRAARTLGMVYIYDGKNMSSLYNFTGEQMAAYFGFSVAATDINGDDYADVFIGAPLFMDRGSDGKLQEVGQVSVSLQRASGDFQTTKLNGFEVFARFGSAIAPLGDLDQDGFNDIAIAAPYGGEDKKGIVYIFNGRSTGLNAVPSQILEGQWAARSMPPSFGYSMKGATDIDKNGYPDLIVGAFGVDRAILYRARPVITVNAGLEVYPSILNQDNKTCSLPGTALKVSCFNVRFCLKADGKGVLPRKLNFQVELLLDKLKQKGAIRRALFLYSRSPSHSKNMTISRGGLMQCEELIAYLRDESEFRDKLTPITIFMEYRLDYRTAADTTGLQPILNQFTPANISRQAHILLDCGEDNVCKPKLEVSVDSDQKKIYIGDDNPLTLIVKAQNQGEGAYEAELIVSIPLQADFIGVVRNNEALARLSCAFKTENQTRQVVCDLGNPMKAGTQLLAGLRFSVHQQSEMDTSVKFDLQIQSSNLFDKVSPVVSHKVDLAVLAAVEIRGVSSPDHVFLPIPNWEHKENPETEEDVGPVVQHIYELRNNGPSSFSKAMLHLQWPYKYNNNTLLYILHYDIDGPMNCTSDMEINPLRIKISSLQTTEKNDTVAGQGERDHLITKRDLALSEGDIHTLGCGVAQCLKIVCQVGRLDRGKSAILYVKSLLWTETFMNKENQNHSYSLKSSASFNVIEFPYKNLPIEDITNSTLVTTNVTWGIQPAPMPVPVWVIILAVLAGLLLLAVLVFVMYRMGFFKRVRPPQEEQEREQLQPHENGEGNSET", "sequence (P05106 27-788, chain 2 of 2, further chain)": "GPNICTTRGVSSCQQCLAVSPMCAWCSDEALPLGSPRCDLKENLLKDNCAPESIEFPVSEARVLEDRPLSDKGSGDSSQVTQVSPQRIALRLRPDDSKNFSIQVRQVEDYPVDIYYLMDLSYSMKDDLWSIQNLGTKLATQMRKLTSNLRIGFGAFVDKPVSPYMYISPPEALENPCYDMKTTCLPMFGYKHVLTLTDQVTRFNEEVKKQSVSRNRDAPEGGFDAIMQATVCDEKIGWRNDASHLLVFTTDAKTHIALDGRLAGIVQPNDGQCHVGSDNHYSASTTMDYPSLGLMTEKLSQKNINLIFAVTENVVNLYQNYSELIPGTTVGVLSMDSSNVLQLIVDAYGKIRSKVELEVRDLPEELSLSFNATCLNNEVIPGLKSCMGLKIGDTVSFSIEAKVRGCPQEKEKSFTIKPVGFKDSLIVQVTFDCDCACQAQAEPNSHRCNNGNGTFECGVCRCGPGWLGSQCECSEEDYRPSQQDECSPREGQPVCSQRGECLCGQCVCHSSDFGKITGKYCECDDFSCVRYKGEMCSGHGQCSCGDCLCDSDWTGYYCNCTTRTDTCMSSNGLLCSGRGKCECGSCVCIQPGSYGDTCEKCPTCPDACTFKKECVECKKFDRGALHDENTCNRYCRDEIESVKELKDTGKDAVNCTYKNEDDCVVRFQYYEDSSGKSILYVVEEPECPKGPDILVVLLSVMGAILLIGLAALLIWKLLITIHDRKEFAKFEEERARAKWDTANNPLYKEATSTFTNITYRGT", "assay": "HUVEC attachment to plates coated with E. coli Tumstatin-45-132; 10 µg/ml antibody"}, "[4]": {"biological_target": "αvβ3 integrin on HUVEC cells (human) (UniProt P06756)", "assay": "HUVEC attachment to Tumstatin-coated plates; 10 µg/ml antibody; against control IgG"}, "[5]": {"biological_target": "αvβ3 integrin on HUVEC cells (human) (UniProt P06756)", "assay": "HUVEC attachment to Tumstatin-coated plates; anti-αvβ3 and anti-β1 antibodies used together"}, "[6]": {"biological_target": "αvβ3 integrin on HUVEC cells (human) (UniProt P06756)", "assay": "cell binding to vitronectin-coated plates; 10 µg/ml antibody"}, "[7]": {"biological_target": "αvβ3 integrin on C-PAE cells (bovine) (UniProt P80746)", "assay": "C-PAE attachment to Tum-1-coated plates"}, "[8]": {"biological_target": "αvβ3 integrin on HUVEC cells (human) (UniProt P06756)", "assay": "HUVEC adhesion to collagen Type IV-coated plates; 10 µg/ml antibody"}, "[9]": {"biological_target": "αvβ3 integrin on C-PAE cells (bovine) (UniProt P80746)", "assay": "C-PAE attachment to Tum-4-coated plates"}, "[10]": {"biological_target": "integrin β1 subunit on HUVEC cells (human) (UniProt P05556)", "sequence (P05556 21-798)": "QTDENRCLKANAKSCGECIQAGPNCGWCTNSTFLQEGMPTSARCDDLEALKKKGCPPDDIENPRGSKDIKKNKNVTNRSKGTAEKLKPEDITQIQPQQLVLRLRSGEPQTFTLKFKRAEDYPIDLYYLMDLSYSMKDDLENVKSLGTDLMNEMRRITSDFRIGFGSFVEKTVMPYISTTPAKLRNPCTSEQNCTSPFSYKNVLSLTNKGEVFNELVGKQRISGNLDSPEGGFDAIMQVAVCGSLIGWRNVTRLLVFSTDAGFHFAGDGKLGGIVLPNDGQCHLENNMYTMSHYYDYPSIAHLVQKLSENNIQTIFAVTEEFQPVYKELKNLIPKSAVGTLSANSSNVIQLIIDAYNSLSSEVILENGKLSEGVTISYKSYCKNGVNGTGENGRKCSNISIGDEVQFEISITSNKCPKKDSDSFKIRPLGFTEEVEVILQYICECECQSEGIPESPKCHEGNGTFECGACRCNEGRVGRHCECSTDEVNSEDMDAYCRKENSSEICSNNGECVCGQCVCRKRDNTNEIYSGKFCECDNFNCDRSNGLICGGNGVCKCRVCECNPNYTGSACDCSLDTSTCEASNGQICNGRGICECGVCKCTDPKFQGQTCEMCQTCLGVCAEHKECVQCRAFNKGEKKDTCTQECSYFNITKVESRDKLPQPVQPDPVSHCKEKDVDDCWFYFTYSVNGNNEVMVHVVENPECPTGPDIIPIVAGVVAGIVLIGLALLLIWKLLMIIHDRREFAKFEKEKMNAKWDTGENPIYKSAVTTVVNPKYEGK", "assay": "HUVEC attachment to plates coated with E. coli Tumstatin-45-132; 10 µg/ml antibody"}, "[11]": {"biological_target": "integrin β1 subunit on HUVEC cells (human) (UniProt P05556)", "assay": "HUVEC attachment to Tumstatin-coated plates; 10 µg/ml antibody; against control IgG"}, "[12]": {"biological_target": "integrin β1 subunit on HUVEC cells (human) (UniProt P05556)", "assay": "HUVEC adhesion to Arresten-coated plates; 10 µg/ml antibody; blocked pair Arresten / integrin β1"}, "[13]": {"biological_target": "integrin β1 subunit on HUVEC cells (human) (UniProt P05556)", "assay": "HUVEC adhesion to collagen Type IV-coated plates; 10 µg/ml antibody"}, "[14]": {"biological_target": "integrin β1 subunit on HUVEC cells (human) (UniProt P05556)", "assay": "cell binding to type IV collagen-coated plates; 10 µg/ml antibody; against control IgG"}},
  "data": [
    {"substance": "Tum-2 (from UniProt Q01955 1427-1558) (ligand)", "values": [
      {"measurement": "recovery of the anti-proliferative effect on C-PAE cells (methylene blue)", "setting": "[1]", "result": 74.1, "unit": "%"}
    ]},
    {"substance": "Tum-4 (from UniProt Q01955 1607-1670) (ligand)", "values": [
      {"measurement": "recovery of the anti-proliferative effect on WM-164 melanoma cells (methylene blue)", "setting": "[1]", "result": 76.7, "unit": "%"}
    ]},
    {"substance": "monoclonal antibody to αvβ3 integrin (clone LM609, CHEMICON International)", "values": [
      {"measurement": "% inhibition of cell attachment", "setting": "[2]", "result": 69.8, "unit": "%"},
      {"measurement": "% inhibition of cell attachment", "setting": "[3]", "result": 47.1, "unit": "%"},
      {"measurement": "% inhibition of cell attachment", "setting": "[4]", "result": 80, "unit": "%"},
      {"measurement": "% inhibition of cell attachment", "setting": "[5]", "result": 91, "unit": "%"},
      {"measurement": "% inhibition of cell binding", "setting": "[6]", "result": 61, "unit": "%"},
      {"measurement": "% inhibition of cell attachment", "setting": "[7]", "result": 55.9, "unit": "%"},
      {"measurement": "% inhibition of cell adhesion", "setting": "[8]", "result": 15, "unit": "%"},
      {"measurement": "% inhibition of cell attachment", "setting": "[9]", "result": 62.6, "unit": "%"}
    ]},
    {"substance": "mouse monoclonal antibody to the human β1 integrin (clone P4C10, Life Technologies/Gibco BRL)", "values": [
      {"measurement": "% inhibition of cell attachment", "setting": "[10]", "result": 47.5, "unit": "%"},
      {"measurement": "% inhibition of cell attachment", "setting": "[11]", "result": 54, "unit": "%"},
      {"measurement": "% inhibition of cell adhesion", "setting": "[12]", "result": 70, "unit": "%"},
      {"measurement": "% inhibition of cell adhesion", "setting": "[13]", "result": 40, "unit": "%"},
      {"measurement": "% inhibition of cell binding", "setting": "[14]", "result": 53, "unit": "%"}
    ]}
  ]
}
